What was measured:
[1] = target: T1, catalytic domain of human MMP-9 (residue 112-445) (Homo sapiens, UniProt P14780); test: MMP inhibition assay (FRET peptide substrate), recombinant MMP-9 catalytic domain; type: biochemical; conditions: CLU 50 μg/ml (0.63 μM), RT 0.3 h
T1 construct: The recombinant catalytic domain of human MMP-9 (residue 112-445) was purchased from ProtEra; purchased ProtEra
Experimental: Recombinant MMP-9 catalytic domain (A) or APMA-activated MMP-7 (B) was incubated with PBS, CLU (50 μg/ml or 0.63 μM), SB3-CT (2 μM), or BSA (50 μg/ml), and MMP FRET substrate at RT for 0.3 h. RFU in PBS samples was considered 100%. Each reaction was performed in triplicate. Standard errors were depicted as a bar in each graph. MMPs were mixed with CLD in TSCB buffer, 50 mM Tris-HCI, pH, 7.5, 150 mM NaCl, 5 mM CaCl2, 0.002% Brij35 (or otherwise indicated concentration) 30 min prior to substrate addition, and incubated for 3 h at RT in the presence or absence of 0.02 mM p-aminophenylmercuric acetate (APMA). MMP activity was measured using a 5-FAM/QXL520 fluorescence resonance energy transfer (FRET) peptide as a substrate (EXlEm=490 nm/520 nm) (AnaSpec, Fremont, Calif.), according to the manufacturer's protocol. Relative fluorescence unit (RFU) was obtained by subtracting the values of APMA- or enzyme-omitted reactions from those of test samples, and then considering the fluorescence unit of a PBS (vehicle) sample as 100%. Enzyme reactions were performed in black 96-well plate, containing combinations of 10 ng, 5 ng, 5 ng, 10 ng, 2.5 μg, 2.5 μg of MMP-2, MMP-7, catalytic domain of MMP-9, MMP-9, CCLU, and/or BSA, respectively, in 50 μl reaction volume. As MMP substrates (0.4 μM), 520 MMP FRET substrate […] […] Fluorescence was monitored using a Victor^3TM V multilabel counter (PerkinElmer). […]

GST-MMP-9 = test: GST pull-down assay with GST-tagged MMP-9; type: binding, mouse; conditions: presence or absence of bacterial lysate
GST-MMP-9, sequence (P41245 109-730 limits assumed): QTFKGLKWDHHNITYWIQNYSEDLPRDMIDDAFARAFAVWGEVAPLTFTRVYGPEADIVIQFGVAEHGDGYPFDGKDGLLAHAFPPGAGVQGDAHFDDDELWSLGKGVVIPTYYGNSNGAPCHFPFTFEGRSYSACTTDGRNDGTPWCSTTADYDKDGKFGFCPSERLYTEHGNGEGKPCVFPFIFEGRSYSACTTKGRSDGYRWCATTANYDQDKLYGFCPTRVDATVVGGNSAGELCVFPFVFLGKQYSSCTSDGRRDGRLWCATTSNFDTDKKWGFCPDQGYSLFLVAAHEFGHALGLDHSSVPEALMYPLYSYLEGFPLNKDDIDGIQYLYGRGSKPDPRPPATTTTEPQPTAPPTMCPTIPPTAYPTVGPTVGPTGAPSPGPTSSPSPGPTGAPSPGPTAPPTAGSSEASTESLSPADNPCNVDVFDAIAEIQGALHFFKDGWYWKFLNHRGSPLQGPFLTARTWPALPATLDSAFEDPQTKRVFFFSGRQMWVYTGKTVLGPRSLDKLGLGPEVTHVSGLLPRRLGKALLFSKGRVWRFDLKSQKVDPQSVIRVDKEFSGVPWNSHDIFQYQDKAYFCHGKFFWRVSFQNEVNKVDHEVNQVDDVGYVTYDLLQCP
Experimental: (A) GST-tagged MMP-9 was purified from the bacterial cells transformed by the expression vector, and immobilized to the anti-GST-beads to prepare MMP-9-GST beads. Purified CLU-HA was incubated with MMP-9-GST beads (M-GST) or GST-beads (GST) in the presence (+Lysate) or absence (−Lysate) of bacterial lysate, followed by washing the beads with binding buffer. Bound proteins were resolved on denaturing 8% SDS/PAGE gel for the immunoblotting with anti-HA antibody. CLU cDNA detected in the yeast two hybrid assay, which corresponds to the CLU coding sequence beginning at position 212 from the ATG site, was used to produce a protein band of approximately 40 KDa. (B) Gelatin (20 μg) and CLU (2 μg) were mixed and incubated in the presence or absence of active MMP-9, followed by denaturing 12% SDS/PAGE gel electrophoresis, which then was stained with Coomasie blue. Two subunits of CLU are designated as α and β.
The GST tagged MMP-9 constructs were generated by ligation of the pGB-MMP-9 EcoR I/Sal I inserts into the pGEX 4T vector (Amersham, Piscataway, N.J.). The pGEX 4T MMP-9 constructs were transformed into the E. Coli strain BL21(DE3) (Novagen, Gibbstown, N.J.) for expression. […]
To further confirm the interaction between MMP-9 and CLU that was detected by yeast two hybrid screening, we performed GST pull down assay using recombinant GST-tagged MMP-9 fusion protein. […]

T1 sequence (P14780 112-445): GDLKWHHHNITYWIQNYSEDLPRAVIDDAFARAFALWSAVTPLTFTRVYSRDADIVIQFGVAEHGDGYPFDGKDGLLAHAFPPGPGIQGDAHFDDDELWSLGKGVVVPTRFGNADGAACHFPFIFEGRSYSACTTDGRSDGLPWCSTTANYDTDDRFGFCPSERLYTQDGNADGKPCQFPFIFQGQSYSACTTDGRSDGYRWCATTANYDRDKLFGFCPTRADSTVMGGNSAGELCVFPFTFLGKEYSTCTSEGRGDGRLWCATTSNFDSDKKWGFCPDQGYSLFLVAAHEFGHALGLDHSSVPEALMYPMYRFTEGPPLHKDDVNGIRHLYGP

inhibition of MMP-9 catalytic domain activity [1]: 59%
B1: CLU: secreted disulfide-linked heterodimeric glycoprotein (70-80 KD); assays used recombinant mouse CLU with C-terminal (His)6 (protein, UniProt Q06890 22-448, looked up)
Clusterin: EQEVSDNELQELSTQGSRYINKEIQNAVQGVKHIKTLIEKTNAERKSLLNSLEEAKKKKEDALEDTRDSEMKLKAFPEVCNETMMALWEECKPCLKHTCMKFYARVCRSGSGLVGQQLEEFLNQSSPFYFWMNGDRIDSLLESDRQQSQVLDAMQDSFARASGIIDTLFQDRFFARELHDPHYFSPIGFPHKRPHFLYPKSRLVRSLMSPSHYGPPSFHNMFQPFFEMIHQAQQAMDVQLHSPAFQFPDVDFLREGEDDRTVCKEIRRNSTGCLKMKGQCEKCQEILSVDCSTNNPAQANLRQELNDSLQVAERLTEQYKELLQSFQSKMLNTSSLLEQLNDQFNWVSQLANLTQGEDKYYLRVSTVTTHSSDSEVPSRVTEVVVKLFDSDPITVVLPEEVSKDNPKFMDTVAEKALQEYRRKSRAE
modifications: C-terminal His6 tag
interaction of HA-tagged CLU with GST-MMP-9 (GST-MMP-9): still interacted even in the presence of the bacterial lysate
